Drawing on US20080119640A1, this text covers pSTAT1 % (PEGASYS fixed as 100%) and pSTAT1 EC50 (pM) for 25 substances.

“And” between values parts separate entries of the source, which are not always exact repeats. Equal entries are not always repeated.

The target of this experiment is T1, IFNα receptor 2 (IFNAR2) on THP-1 cells (human) (UniProt P48551).
T1 sequence (looked up): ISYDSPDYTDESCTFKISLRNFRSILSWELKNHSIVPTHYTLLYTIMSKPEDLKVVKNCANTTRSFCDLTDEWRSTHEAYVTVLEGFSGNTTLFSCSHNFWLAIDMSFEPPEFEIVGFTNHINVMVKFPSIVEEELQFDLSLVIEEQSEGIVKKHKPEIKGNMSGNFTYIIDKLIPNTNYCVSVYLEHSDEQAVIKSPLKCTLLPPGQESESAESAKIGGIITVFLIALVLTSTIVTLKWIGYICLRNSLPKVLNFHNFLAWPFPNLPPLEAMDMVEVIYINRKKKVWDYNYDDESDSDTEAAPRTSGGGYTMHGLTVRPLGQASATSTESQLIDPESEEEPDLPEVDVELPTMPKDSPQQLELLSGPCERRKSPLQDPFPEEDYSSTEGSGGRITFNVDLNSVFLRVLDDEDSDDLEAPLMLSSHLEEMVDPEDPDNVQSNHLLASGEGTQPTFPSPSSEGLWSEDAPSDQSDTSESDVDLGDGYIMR
The experiment in a line: cell-based or functional assay.
As for “6His L117pAF-30K PEG (from UniProt P01563 24-188) (ligand)”, the pSTAT1 % (PEGASYS fixed as 100%) was 50.6% and the pSTAT1 EC50 (pM) came to 242 pM.

For the substance “PEGASYS® (Peginterferon alfa-2a) (from UniProt P01563 24-188) (ligand)”, the pSTAT1 % (PEGASYS fixed as 100%) is 100% and the pSTAT1 EC50 (pM) is 479 pM.

As for “6HisC1G/C98 IFNα-2a + limitin loop (from UniProt P01563 25-188) (ligand)”, the pSTAT1 % (PEGASYS fixed as 100%) was 6.27% and 7.27%; the pSTAT1 EC50 (pM) was 30 pM and 34.8 pM.

The substance “6His P39pAF-30K PEG (from UniProt P01563 24-188) (ligand)” came in with a pSTAT1 % (PEGASYS fixed as 100%) of 52.9% and a pSTAT1 EC50 (pM) of 253 pM.

Regarding “6His E107pAF-30K PEG (from UniProt P01563 24-188) (ligand)”, the pSTAT1 % (PEGASYS fixed as 100%) was 22.3% and 7.27%.

The substance “6His E113pAF-30K PEG (from UniProt P01563 24-188) (ligand)” registered a pSTAT1 % (PEGASYS fixed as 100%) of 54.7% and a pSTAT1 EC50 (pM) of 262 pM.

The substance “6His T106pAF-30K PEG (from UniProt P01563 24-188) (ligand)” had a pSTAT1 % (PEGASYS fixed as 100%) of 28.4%.

Substance “6His F27pAF-30K PEG (from UniProt P01563 24-188) (ligand)” displayed a pSTAT1 % (PEGASYS fixed as 100%) of 66% and a pSTAT1 EC50 (pM) of 316 pM.

Substance “6His K31pAF (from UniProt P01563 24-188) (ligand)” had a pSTAT1 % (PEGASYS fixed as 100%) of 10.2%.

Consider “6His E107pAF (from UniProt P01563 24-188) (ligand)”, for which the pSTAT1 % (PEGASYS fixed as 100%) worked out at 6.43% and the pSTAT1 EC50 (pM) came to 30.8 pM.

The substance “6His L110pAF-30K PEG (from UniProt P01563 24-188) (ligand)” displayed a pSTAT1 % (PEGASYS fixed as 100%) of 27.8% and a pSTAT1 EC50 (pM) of 133 pM.

Regarding “6His H34pAF-30K PEG (from UniProt P01563 24-188) (ligand)”, the pSTAT1 % (PEGASYS fixed as 100%) was 33.6% and the pSTAT1 EC50 (pM) turned out to be 161 pM.

With “6His H34pAF (from UniProt P01563 24-188) (ligand)”, the pSTAT1 % (PEGASYS fixed as 100%) came to 25%.

Substance “6His G37pAF (from UniProt P01563 24-188) (ligand)” had a pSTAT1 % (PEGASYS fixed as 100%) of 4.55% and a pSTAT1 EC50 (pM) of 21.8 pM.

The substance “6His R125pAF-30K PEG (from UniProt P01563 24-188) (ligand)” yielded a pSTAT1 % (PEGASYS fixed as 100%) of 47% and a pSTAT1 EC50 (pM) of 225 pM.

On to “6His F38L (from UniProt P01563 24-188) (ligand)”, for which the pSTAT1 % (PEGASYS fixed as 100%) worked out at 2.72% and the pSTAT1 EC50 (pM) was found to be 13 pM.

Consider “6His R12pAF-30K PEG (from UniProt P01563 24-188) (ligand)”, for which the pSTAT1 % (PEGASYS fixed as 100%) was 138% and the pSTAT1 EC50 (pM) came out at 660 pM.

“6His K134pAF-30K PEG (from UniProt P01563 24-188) (ligand)” gave a pSTAT1 % (PEGASYS fixed as 100%) of 22.5%.

In turn, “6His F38S (from UniProt P01563 24-188) (ligand)” came in with a pSTAT1 % (PEGASYS fixed as 100%) of 3.76%.

“6His E41pAF-30K PEG (from UniProt P01563 24-188) (ligand)” displayed a pSTAT1 % (PEGASYS fixed as 100%) of 25.2% and a pSTAT1 EC50 (pM) of 120 pM.

In the case of “6His G37pAF-30K PEG (from UniProt P01563 24-188) (ligand)”, the pSTAT1 % (PEGASYS fixed as 100%) came to 40.3% and the pSTAT1 EC50 (pM) was 193 pM.

Substance “6His N45pAF-30K PEG (from UniProt P01563 24-188) (ligand)” had a pSTAT1 % (PEGASYS fixed as 100%) of 18.2%.

Consider “6His N65pAF-30K PEG (from UniProt P01563 24-188) (ligand)”, for which the pSTAT1 % (PEGASYS fixed as 100%) is > 532% and the pSTAT1 EC50 (pM) is > 2860 pM.

In turn, “6His K31pAF-30K PEG (from UniProt P01563 24-188) (ligand)” returned a pSTAT1 % (PEGASYS fixed as 100%) of 62.5%.

In turn, “6His E41pAF (from UniProt P01563 24-188) (ligand)” had a pSTAT1 % (PEGASYS fixed as 100%) of 3.97% and a pSTAT1 EC50 (pM) of 19 pM.
